Results reported in US20020183249A1, “Method of identifying inhibitors of CDC25” (priority 1999, published 2002).
Read-outs that look alike come from different tables or passages of the source. Non-standard residues stand in square brackets, D forms with d. Residues, ends and D or L forms follow the SMILES beside them. *: point of attachment. Phe(4-CH2SO3H) = N[C@@H](Cc1ccc(CS(=O)(=O)O)cc1)C(=O)O; Bta = N[C@@H](Cc1csc2ccccc12)C(=O)O; Aad = N[C@@H](CCCC(=O)O)C(=O)O; X1 = CCOc1ccc2ccccc2c1C(=O)*; X2 = COc1ccc2ccccc2c1C(=O)*; αMeP = C[C@@]1(C(=O)O)CCCN1; Nle = CCCC[C@H](N)C(=O)O; Nva = CCC[C@H](N)C(=O)O; NHtBu = CC(C)(C)N*; OtBu = CC(C)(C)O*

Columns and labels:
[1] = target: Cdc25A (human); assay: cell-based or functional assay
[2] = target: T1, Cdc25A (Homo sapiens, UniProt P30304); assay: Inhibition of Cdc25A enzymatic activity (IC50); assay type: biochemical
T1 sequence (P30304 1-524): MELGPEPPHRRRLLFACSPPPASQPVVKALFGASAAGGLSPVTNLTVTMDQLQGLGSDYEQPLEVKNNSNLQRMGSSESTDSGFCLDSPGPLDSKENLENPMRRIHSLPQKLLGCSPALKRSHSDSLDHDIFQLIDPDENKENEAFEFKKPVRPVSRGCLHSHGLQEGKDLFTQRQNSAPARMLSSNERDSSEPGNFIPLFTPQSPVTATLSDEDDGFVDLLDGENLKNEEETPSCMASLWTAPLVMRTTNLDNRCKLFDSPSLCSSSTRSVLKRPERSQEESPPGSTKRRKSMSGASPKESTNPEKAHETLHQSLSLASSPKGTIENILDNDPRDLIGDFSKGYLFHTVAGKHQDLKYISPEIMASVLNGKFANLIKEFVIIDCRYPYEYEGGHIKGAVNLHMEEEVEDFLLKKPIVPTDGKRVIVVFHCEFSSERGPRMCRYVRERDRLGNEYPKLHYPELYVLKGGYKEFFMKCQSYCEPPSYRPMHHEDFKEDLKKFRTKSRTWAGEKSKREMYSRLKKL
Excerpt: A compound which is identified by one of the foregoing methods as a potential inhibitor of Cdc25 can then be obtained, for example, by synthesis or from a compound library, and assessed for the ability to inhibit Cdc25 in vitro. Such an in vitro assay can be performed as is known in the art, for example, by contacting Cdc25 in solution with the test compound in the presence of a substrate for Cdc25. The rate of substrate transformation can be determined in the presence of the test compound and compared with the rate in the absence of the test compound. Suitable assays for Cdc25 biological activity are described in U.S. Pat. Nos. 5,861,249; 5,695,950; 5,443,962; and 5,294,538, the teachings of each of which are hereby incorporated by reference herein in their entirety.

Compound	IC50 [1] [µM]	IC50 [2] [µM]	further results
2-CH3O-1-naphthyl-CO-Smp-Glu-Glu-Bta-Aad-NHtBu (peptide)	5	–	–
2-EtO-naphthyl-1-CO-Smp-Glu(tBu)-Pro-Bta-Aad-NHtBu (peptide)	1.1	–	–
2-EtO-naphthyl-1-CO-Smp-Glu-Pro-Bta-Aad-NHtBu (peptide)	2.2	–	increase in potency compared to cdc1671 [1]: 2 fold
2-EtO-naphthyl-1-CO-Smp-Nle-Pro-Bta-Aad-NHtBu (peptide)	2.5	–	–
2-EtO-naphthyl-1-CO-Smp-Nva-MePro-Bta-Aad-NHtBu (peptide)	1.5	–	–
COc1ccc2ccccc2c1C(=O)N[C@@H](Cc1ccc(CS(=O)(=O)O)cc1)C(=O)N[C@@H](CCC(=O)O)C(=O)N[C@@H](CCC(=O)O)C(=O)N[C@@H](Cc1csc2ccccc12)C(=O)N[C@@H](CCCC(=O)O)C(=O)NC(C)(C)C [cdc1671, 2-CH3O-1-naphthyl-CO—Smp—Glu—Glu—Bta—Aad—NHtBu] (X2-[Phe(4-CH2SO3H)]EE[Bta][Aad]-NHtBu)	–	–	IC50 ([2]; inhibits Cdc25A, read-out: IC50): 5 µM
CCOc1ccc2ccccc2c1C(=O)N[C@@H](Cc1ccc(CS(=O)(=O)O)cc1)C(=O)N[C@@H](CCC(=O)OC(C)(C)C)C(=O)N1CCC[C@H]1C(=O)N[C@@H](Cc1csc2ccccc12)C(=O)N[C@@H](CCCC(=O)O)C(=O)NC(C)(C)C [cdc1719] (X1-[Phe(4-CH2SO3H)]E(OtBu)P[Bta][Aad]-NHtBu)	–	1.1	–
CCCC[C@H](NC(=O)[C@H](Cc1ccc(CS(=O)(=O)O)cc1)NC(=O)c1c(OCC)ccc2ccccc12)C(=O)N1CCC[C@H]1C(=O)N[C@@H](Cc1csc2ccccc12)C(=O)N[C@@H](CCCC(=O)O)C(=O)NC(C)(C)C [cdc1748] (X1-[Phe(4-CH2SO3H)][Nle]P[Bta][Aad]-NHtBu)	–	2.5	–
CCC[C@H](NC(=O)[C@H](Cc1ccc(CS(=O)(=O)O)cc1)NC(=O)c1c(OCC)ccc2ccccc12)C(=O)N1CCC[C@@]1(C)C(=O)N[C@@H](Cc1csc2ccccc12)C(=O)N[C@@H](CCCC(=O)O)C(=O)NC(C)(C)C [cdc1749] (X1-[Phe(4-CH2SO3H)][Nva][αMeP][Bta][Aad]-NHtBu)	–	1.5	–
CCOc1ccc2ccccc2c1C(=O)N[C@@H](Cc1ccc(CS(=O)(=O)O)cc1)C(=O)N[C@@H](CCC(=O)O)C(=O)N1CCC[C@H]1C(=O)N[C@@H](Cc1csc2ccccc12)C(=O)N[C@@H](CCCC(=O)O)C(=O)NC(C)(C)C [cdc1763] (X1-[Phe(4-CH2SO3H)]EP[Bta][Aad]-NHtBu)	–	2.2	increase in potency compared to cdc1671 ([2]; Cdc25A IC50 relative to cdc1671): two-fold
